Measurements taken from patent publication US20010029022A1.

Biological target: CDK2 kinase complex (cyclin not given) (UniProt P24941)
Experiment: cell-based or functional assay

B1: GST-HPV6b E7 (protein)
chain: MHGRHVTLKDIVLDLQPPDPVGLHCYEQLVDSSEDEVDEVDGQDSQPLKQHFQIVTCCCGCDSNVRLVVQCTETDIREVQQLLLGTLNIVCPICAPKT
  CDK2 histone kinase activity, fold activation: 15.8 fold
